Source: PMC11098114 (Proceedings of the National Academy of Sciences of the …, 2024)
Where a chain is given by its changes, count along the chain named.

Target: the molecule itself
Assay: SEC

B1: 3×Ala-MxEnc (natural protein, Myxococcus xanthus)
chain: MPDFLGHAENPLREEEWARLNETVIQVARRSLVGRRILDIYGPLGAGVQTVPYDEFQGVSPGAVDIVGEQETAMVFTDARKFKTIPIIYKDFLLHWRDIEAARTHNMPLDVSAAAGAAALCAQQEDELIFYGDARLGYEGLMTANGRLTVPLGDWTSPGGGFQAIVEATRKLNEQGHFGPYAVVLSPRLYSQLHRIYEAAAVLEIETIRQLASDGVYQSNRLRGESGVVVSTGRENMDLAVSMDMVAAYLGASRMNHPFRVLEALLLRIKHPDAICTLEGAGATERR
Question: Does B1 bind?
Answer: binds

B2: 3×Asp-MxEnc (natural protein, Myxococcus xanthus)
chain: B1 chain with A199D, A200D, A201D
Question: Does B2 bind?
Answer: binds
